From patent publication US20050112723A1, “Mammalian cell lines specifically deficient in O-linked glycosylation” (priority 2003, published 2005)
“Also recorded” adds a separate entry of the source.

Assays:
ldlD cells = details: Krieger et al. (1989); cited from earlier work
wild-type CHO cells = details: Krieger et al. (1989); cited from earlier work
[1] = tested on: UDP-galNAc/UDP-glcNAc interconversion; assay: In vitro assay for UDP-GalNAc, purified enzymes; assay type: biochemical; details: purified enzyme expressed in Pichia pastoris, FIG. 1
Procedure: (§1) In Vitro Assay for UDP-GalNAc: The radioactive method for detecting conversion of UDP-GalNAc to UDP-GIcNAc was performed essentially as described above for UDP-Gal, with the following assay components per 25 μl of reaction: 8.75 μl of premix (0.04 μCi of UDP-[^14C]GalNAc (ICN), 1.89 mM cold UDP-GalNAc, 28.6 mM pyruvate, 286 mM glycine, pH 8.7, 5 μl of 20 mM NAD), and 11.25 μl of protein diluted in Johnston buffer. Appropriate amounts of protein were used in each reaction to stay within the predetermined linear range of the assay. Assays were performed as for UDP-Gal, with a TLC run-time of 10 h and quantified as described for UDP-Gal.
(§2) For analysis by HPLC, protein samples were diluted with glycine buffer (100 mM glycine, pH 8.7) to a final volume of 7.5 μl. For each reaction, 2.5 μl of 20 mM NAD+, and 2.5 il of premix (3.3 mM UDP-GalNAc, and 500 mM glycine, pH 8.7) were added, for a final reaction volume of 12.5 μl. Assay mixtures were incubated at 37° C. for 30 min before stopping by addition of 2.5 volumes of ice-cold 100% methanol. Samples were vortexed, spun and dried as for UDP-Gal HPLC assays, and resuspended in 750 μl ddH2O. The suspension was added to an 0.2 μm nylon micro-spin filter tube, and spun for approximately 2.5 min at 4000 g. An aliquot of 20 μl was then analyzed by HPLC.
HPLC Analysis of Carbohydrates: Carbohydrate detection by HPLC was based on the methods of Smits (1998) and de Koning (1992). HPLC analysis was carried out on a DX600 HPLC system (Dionex, Sunnyvale, CA) consisting of a Dionex AS50 autosampler, a Dionex GP50 gradient pump, and a Dionex ED50 electrochemical detector. Carbohydrates were separated on a CarboPac PA10 column, 250×4 mm, with a CarboPac PA10 guard column, 50×4 mm, placed before the analysis column, and a borate trap placed after. […]
The ED50 detector consisted of a gold electrode and a pH-Ag/AgCl reference electrode for signal detection by integrated amperometry. […] Carbohydrates were quantified using PeakNet software version 6.4 (Dionex) and based on integration of peak areas with comparison to standards. […]

[2] = tested on: UDP-gal/UDP-glc interconversion; assay: In vitro UDP-gal activity assays on protein extracts from transfected ldlD cells; assay type: biochemical; details: protein extracts of stably transfected ldlD cells, CMV promoter, FIG. 3 and 5
Procedure: (§3) In Vitro Assays for UDP-Gal: Aliquots of each purified enzyme from Example lwere stored in 50% glycerol with 4 mM NAD+ in liquid nitrogen, while crude extracts were stored at −80° C. until needed. All crude extracts were passed through Micro biospin 30 columns (Biorad) before being assayed for enzyme activity. Assays to determine the level of GALE activity with respect to UDP-Gal were performed essentially as previously described in Thoden et al. J Biol Chem Jul 26; 277(30):27528-34 (2002). […] For radioactive assay, conversion of UDP-Gal to UDP-Glc was measured in a 12.5-μl reaction containing 2.5 μl of premix (0.05 μCi of UDP-[^14C]Gal (Amersham Biosciences), […] cold UDP-Gal, 0.2 mM glycine buffer, pH 8.7), 2.5 μl of 20 mM NAD+, and 7.5 μl of purified protein diluted in Johnston buffer (20 mM HEPES/KOH, pH 7.5, 1 mM dithiothreitol, and 0.3 mg of bovine serum albumin/ml). Appropriate amounts of protein were used in each reaction in order to stay within the predetermined linear range of the assay. Reactions were incubated at 37° C for 30 min and were stopped by boiling at 100° C. for 10 min. […] Images were visualized with a Typhoon 9200 variable mode imager and quantified using ImageQuant software (both from Amersham Biosciences). Percent conversion was determined by dividing the product signal by the total signal and multiplying by 100. […] A 15 μl aliquot was then analyzed by HPLC. […]

[3] = tested on: UDP-galNAc/UDP-glcNAc interconversion; assay: UDP-GalNAc activity of GALE alleles expressed in ldlD cells; assay type: biochemical; details: enzyme expressed in ldlD cells, FIG. 6
Procedure: as §1, §2
In this experiment, ldlD cells expressing WThGALE were used as a positive control, and ldlD cells expressing backbone alone were used as a negative control.

[4] = tested on: UDP-gal/UDP-glc interconversion; assay: In vitro assay for UDP-Gal, purified enzymes; assay type: biochemical; details: purified enzyme expressed in Pichia pastoris, FIG. 1
Procedure: as §3

Molecule: O=C[C@H](O)[C@@H](O)[C@@H](O)[C@H](O)CO [galactose]
- galactose concentration at which cells experience toxicity (ldlD cells): greater than 75 μM
- galactose levels with no apparent toxicity (wild-type CHO cells): ≤ 10 mM

B1: WTeGALE: wild-type E. coli GALE (UDP-galactose 4-epimerase) (protein)
chain: MRVLVTGGSGYIGSHTCVQLLQNGHDVIILDNLCNSKRSVLPVIERLGGKHPTFVEGDIRNEALMTEILHDHAIDTVIHFAGLKAVGESVQKPLEYYDNNVNGTLRLISAMRAANVKNFIFSSSATVYGDQPKIPYVESFPTGTPQSPYGKSKLMVEQILTDLQKAQPDWSIALLRYFNPVGAHPSGDMGEDPQGIPNNLMPYIAQVAVGRRDSLAIFGNDYPTEDGTGVRDYIHVMDLADGHVVAMEKLANKPGVHIYNLGAGVGNSVLDVVNAFSKACGKPVNYHFAPRREGDLPAYWADASKADRELNWRVTRTLDEMAQDTWHWQSRHPQGYPD
modifications: Eschesichia Coli
- ability to interconvert UDP-GalNAc and UDP-GlcNAc [1]: no ability
- activity with regard to UDP-gal/UDP-glc interconversion [2]: active
- activity with regard to UDP-galNAc/UDP-glcNAc interconversion [3]: not significantly active

B2: WThGALE: wild type human GALE (UDP-galactose 4-epimerase) (protein, UniProt Q14376 1-348, looked up)
UDP-glucose 4-epimerase: MAEKVLVTGGAGYIGSHTVLELLEAGYLPVVIDNFHNAFRGGGSLPESLRRVQELTGRSVEFEEMDILDQGALQRLFKKYSFMAVIHFAGLKAVGESVQKPLDYYRVNLTGTIQLLEIMKAHGVKNLVFSSSATVYGNPQYLPLDEAHPTGGCTNPYGKSKFFIEEMIRDLCQADKTWNAVLLRYFNPTGAHASGCIGEDPQGIPNNLMPYVSQVAIGRREALNVFGNDYDTEDGTGVRDYIHVVDLAKGHIAALRKLKEQCGCRIYNLGTGTGYSVLQMVQAMEKASGKKIPYKVVARREGDVAACYANPSLAQEELGWTAALGLDRMCEDLWRWQKQNPSGFGTQA
- UDP-Gal activity (UDP-Gal/UDP-Glc interconversion) [4]: well
- ability to interconvert UDP-GalNAc and UDP-GlcNAc [1]: well
- activity with regard to UDP-galNAc/UDP-glcNAc interconversion [3]: very active

B3: C307YhGALE: wild type hGALE except a tyrosine residue has been substituted for cysteine at position 307 (protein)
chain: MAEKVLVTGGAGYIGSHTVLELLEAGYLPVVIDNFHNAFRGGGSLPESLRRVQELTGRSVEFEEMDILDQGALQRLFKKYSFMAVIHFAGLKAVGESVQKPLDYYRVNLTGTIQLLEIMKAHGVKNLVFSSSATVYGNPQYLPLDEAHPTGGCTNPYGKSKFFIEEMIRDLCQADKTWNAVLLRYFNPTGAHASGCIGEDPQGIPNNLMPYVSQVAIGRREALNVFGNDYDTEDGTGVRDYIHVVDLAKGHIAALRKLKEQCGCRIYNLGTGTGYSVLQMVQAMEKASGKKIPYKVVARREGDVAAYYANPSLAQEELGWTAALGLDRMCEDLWRWQKQNPSGFGTQA
modifications: Human polypeptide
- UDP-Gal activity (UDP-Gal/UDP-Glc interconversion) [4]: maintains wildtype levels
- UDP-GalNAc activity, % of that seen in WT hGALE [1]: 2.30%
- activity with regard to UDP-gal/UDP-glc interconversion [2]: active
- activity with regard to UDP-galNAc/UDP-glcNAc interconversion [3]: reduced to levels close to those seen in ldld cells expressing backbone alone; also recorded: reduced to levels close to those seen in IdiD cells expressing backbone alone
- activity with regard to UDP-galNAc/UDP-glcNAc interconversion ([3]; listed as C307Y hGALE): not significantly active
